Data as given in publication PMC3386157, “G Protein Activation without a GEF in the Plant Kingdom” (PLoS Genetics, 2012).
Numbering of substitutions follows the chain as printed.

Assays:
Experiment in all cases: SPR; BIAcore 2000; His-tagged AtRGS1 (284-459 aa) immobilised on sensor chip CM5 by amine coupling; AlF4-bound Gα flowed at 6.25-400 nM in running buffer with 20 mM NaF and 100 µM AlCl3; 25°C, 10 µl/min; 10 mM Hepes, 150 mM NaCl, 3 mM EDTA, 0.005% Tween-20, 100 µM GDP, 10 mM MgCl2; 1:1 Langmuir model
Settings in all cases: both partners purified
[1] = target: T1, OsRGA1-N195T (Oryza sativa, UniProt Q0DJ33 1-380, N195T)
T1 construct: Oryza sativa heterotrimeric G protein alpha subunit OsRGA1 with N195T (switch I); printed as N191T in two paragraphs; also called OsRGA1-N191T; 195T mutant rice Gα subunit
T1 sequence (looked up): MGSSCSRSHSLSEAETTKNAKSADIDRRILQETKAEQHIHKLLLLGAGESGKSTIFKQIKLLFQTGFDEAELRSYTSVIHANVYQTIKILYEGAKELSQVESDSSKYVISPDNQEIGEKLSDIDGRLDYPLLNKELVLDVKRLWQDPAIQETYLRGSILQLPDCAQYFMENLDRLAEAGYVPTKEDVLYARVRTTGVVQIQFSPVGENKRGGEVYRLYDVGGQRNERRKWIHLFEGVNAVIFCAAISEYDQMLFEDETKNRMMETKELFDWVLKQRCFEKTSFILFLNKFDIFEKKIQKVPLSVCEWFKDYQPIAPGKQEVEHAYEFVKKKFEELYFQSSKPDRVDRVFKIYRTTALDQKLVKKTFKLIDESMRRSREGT

[2] = target: T2, AtGPA1-T194N (Arabidopsis thaliana, UniProt P18064 1-383, T194N)
T2 construct: Arabidopsis thaliana heterotrimeric G protein alpha subunit AtGPA1 with T194N (switch I); No tag cleavage is described; also called T194N mutant Arabidopsis Gα subunit
T2 sequence (looked up): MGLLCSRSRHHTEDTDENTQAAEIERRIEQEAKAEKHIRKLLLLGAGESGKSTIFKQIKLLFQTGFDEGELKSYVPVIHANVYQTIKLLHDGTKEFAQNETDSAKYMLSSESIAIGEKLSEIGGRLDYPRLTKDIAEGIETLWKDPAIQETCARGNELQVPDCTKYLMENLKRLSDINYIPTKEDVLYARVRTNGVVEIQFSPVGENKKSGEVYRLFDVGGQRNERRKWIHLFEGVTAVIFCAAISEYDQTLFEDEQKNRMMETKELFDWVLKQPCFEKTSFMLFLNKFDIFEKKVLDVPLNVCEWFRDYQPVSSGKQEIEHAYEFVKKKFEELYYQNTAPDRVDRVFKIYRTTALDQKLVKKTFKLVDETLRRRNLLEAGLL

[3] = target: T3, His-AtGPA1 (Arabidopsis thaliana, UniProt P18064 1-383)
T3 construct: Arabidopsis thaliana heterotrimeric G protein alpha subunit AtGPA1; also called Arabidopsis thaliana Gα; wild type Arabidopsis Gα subunit; not shown: His6, N-terminal, kept
T3 sequence (looked up): T2 sequence (looked up) with N194T

[4] = target: T4, OsRGA1 (Oryza sativa, UniProt Q0DJ33 1-380)
T4 construct: Oryza sativa heterotrimeric G protein alpha subunit OsRGA1; cDNA synthesized with codon usage optimised for E. coli; No tag cleavage is described; also called rice Gα; wild type rice Gα subunit
T4 sequence (looked up): T1 sequence (looked up) with T195N

Kd [1]: 4.83 nM
koff [1]: 0.00584 s⁻¹
kon [1]: 1.21e+06 M⁻¹ s⁻¹
Kd [2]: 115 nM
koff [2]: 0.0134 s⁻¹
kon [2]: 117000 M⁻¹ s⁻¹
Kd [3]: 17.4 nM
koff [3]: 0.00616 s⁻¹
kon [3]: 353000 M⁻¹ s⁻¹
Kd [4]: 56.7 nM
koff [4]: 0.0217 s⁻¹
kon [4]: 383000 M⁻¹ s⁻¹
B1: Recombinant His-AtRGS1 (284–459 aa) (domain or fragment, Arabidopsis thaliana, UniProt Q8H1F2 284-459, looked up)
chain: KEEFRPVDPNEPLDKLLLNKRFRHSFMEFADSCYAGETLHFFEEVYEHGKIPEDDSIRRIYMARHIMEKFIVAGAEMELNLSHKTRQEILTTQDLTHTDLFKNALNEVMQLIKMNLVRDYWSSIYFIKFKEEESCHEAMHKEGYSFSSPRLSSVQGSDDPFYQEHMSKSSRCSSPG
notes: Arabidopsis thaliana Regulator of G protein Signaling 1 (AtRGS1), residues 284-459
